Experiments:
[1] = Pharmacokinetic study, single intravenous infusion in cynomolgus monkeys; conditions: both sexes, cynomolgus monkey, in vivo
Experimental: 18 cynomolgus monkeys (half female and half male) were weighed one day before administration, stratified based on the weight, and then randomly divided into 3 groups (3 females and 3 males/group): a low dose group (1 mg/kg), a medium dose group (3 mg/kg), and a high dose group (10 mg/kg). […] Blood was collected from the forelimb veins of cynomolgus monkeys in each group, and treated samples of the blood collected at 0 h before and 0.5 […], and 672 h after the administration were used as PK samples. After the blood collection at each time point was completed, serum was obtained by centrifugation for sample analysis.

human B7H3 = molecular target: T1, human B7H3 (Homo sapiens, UniProt Q5ZPR3); test: FACS binding to human B7H3-expressing cells MCF-7
T1 construct: MCF-7 cells expressing human full-length B7H3; host or cells: MCF-7
T1 sequence (Q5ZPR3 29-534): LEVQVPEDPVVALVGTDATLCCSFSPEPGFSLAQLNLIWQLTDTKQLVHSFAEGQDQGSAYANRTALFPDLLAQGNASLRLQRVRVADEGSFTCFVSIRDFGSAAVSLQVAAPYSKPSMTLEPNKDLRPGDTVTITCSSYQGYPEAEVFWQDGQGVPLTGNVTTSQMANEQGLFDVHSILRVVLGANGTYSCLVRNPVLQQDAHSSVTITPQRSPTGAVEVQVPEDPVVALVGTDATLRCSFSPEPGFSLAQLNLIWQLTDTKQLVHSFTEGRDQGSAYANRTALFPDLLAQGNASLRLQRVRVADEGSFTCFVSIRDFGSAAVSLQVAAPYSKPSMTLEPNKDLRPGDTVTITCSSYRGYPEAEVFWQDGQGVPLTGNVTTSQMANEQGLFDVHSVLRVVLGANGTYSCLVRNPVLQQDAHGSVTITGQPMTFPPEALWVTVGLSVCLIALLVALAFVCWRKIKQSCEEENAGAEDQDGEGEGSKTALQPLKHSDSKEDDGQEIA
Experimental: (§1) FACS was used to detect the binding of antibodies to human B7H3. This method allows quantitative analysis and identification of specific molecules expressed on the surface of living cells. Unlabeled cells were used as a control to set a threshold before the assay, and the percentage change for each group that exceeded the fluorescence intensity threshold was analyzed. MCF-7 cells expressing human full-length B7H3 (1×10^5 cells/well) were incubated with various concentrations of antibodies (3.16-fold serially diluted with 1×DPBS/1% BSA from 50 nM to 0.0005 nM) in a volume of 100 μL/well in a refrigerator set to 4° C. for 1 h. Anti-human B7H3 reference antibody enoblituzumab (MacroGeneics) was used as a positive control. Human IgG1 isotype antibody was used as a negative control. After washing the cells with 1×DPBS/1% BSA, Alexa 647 goat anti-human antibody (diluted in a 1:500 ratio in 1×DPBS/1% BSA) was added. The cells were incubated in a refrigerator set to 4° C. for 0.5 h in the dark. The mean fluorescence intensity (MFI) of the cells was measured by a flow cytometry and analyzed by FlowJo. EC50 values were calculated by four-parameter non-linear regression analysis using GraphPad Prism 7 software.

cynomolgus monkey B7H3 [2] = test: FACS binding to cynomolgus monkey B7H3-transfected stable cell pool
Experimental: as §1, with “to cynomolgus monkey” for “to human”, “B7H3. FlpinCHO” for “B7H3. This method allows quantitative analysis and identification of specific molecules expressed on the surface of living cells. Unlabeled”, “were transfected with cynomolgus monkey B7H3 (W3XX088-FlpinCHO.cProl.pool) (1×10^5 cells/well),” for “were used as a control to set a threshold before the assay,”, “the transfected” for “the percentage change for each group that exceeded the fluorescence intensity threshold was analyzed. MCF-7”, “cells” for “cells expressing human full-length B7H3 (1×10^5 cells/well)”

cynomolgus monkey B7H3 [3] = test: Binding affinity for cynomolgus monkey B7H3 (SPR)
Experimental: The affinity of antibodies for cynomolgus monkey B7H3 was determined using surface plasmon resonance (SPR). The affinity of antibodies for cynomolgus monkey B7H3 was determined by Biacore 8K. An activator was prepared by mixing 400 mM EDC and 100 mM NHS (GE) immediately prior to injection into the channel. The CM5 sensor chip was activated for 420 seconds with the activator. Goat anti-human Fc IgG (30 μg/mL in 10 mM NaAc, pH 4.5) was then injected into the channel at a flow rate of 10 μL/min for 420 seconds. The chip was deactivated by 1 M ethanolamine hydrochloric acid. The antibodies diluted in running buffer (1×HBS-EP+) were injected into the channel at a flow rate of 10 μL/min for 30 seconds. […] Glycine (10 mM, pH 1.5) was injected as regeneration buffer after the dissociation phase.
The sensorgrams for the reference channel and the buffer channel were subtracted from the test sensorgrams. The experimental data for 6 analyte concentrations (50 nM, 25 nM, 12.5 nM, 6.25 nM, 3.125 nM, and 1.563 nM) were fitted with a 1:1 binding model. The molecular weight of the cynomolgus monkey B7H3 used in the calculation was 49 kDa.

human 2IgB7H3 = molecular target: T2, human 2IgB7H3 (Homo sapiens, UniProt Q5ZPR3); test: Binding affinity for human 2IgB7H3 (SPR)
T2 construct: His tag; purchased ACROBiosystems B73-H52E2
T2 sequence (Q5ZPR3 29-316 isoform Q5ZPR3-2 limits assumed): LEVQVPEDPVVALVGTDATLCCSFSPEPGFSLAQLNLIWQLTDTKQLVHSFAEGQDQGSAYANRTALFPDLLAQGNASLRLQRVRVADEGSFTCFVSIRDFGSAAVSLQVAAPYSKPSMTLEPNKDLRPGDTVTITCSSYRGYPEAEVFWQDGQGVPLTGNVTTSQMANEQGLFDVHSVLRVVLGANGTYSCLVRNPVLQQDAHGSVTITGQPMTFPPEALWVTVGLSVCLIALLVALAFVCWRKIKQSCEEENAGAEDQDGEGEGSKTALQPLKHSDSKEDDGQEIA
Experimental: The affinity of antibodies for human 2IgB7H3 was determined using surface plasmon resonance (SPR). The affinity of antibodies for human 2IgB7H3 was determined by Biacore 8K. An activator was prepared by mixing 400 mM EDC and 100 mM NHS (GE) immediately prior to injection into the channel. The CM5 sensor chip was activated for 420 seconds with the activator. Goat anti-human Fc IgG (30 μg/mL in 10 mM NaAc, pH 4.5) was then injected into the channel at a flow rate of 10 μL/min for 420 seconds. The chip was deactivated by 1 M ethanolamine hydrochloric acid. The antibodies diluted in running buffer (1×HBS-EP+) were injected into the channel at a flow rate of 10 μL/min for 30 seconds. Seven concentrations (500 nM, 250 nM, 125 nM, 62.5 nM, 31.25 nM, 15.625 nM, and 7.813 nM) of analyte human 2IgB7H3 were injected sequentially into the channel at a flow rate of 30 μL/min for an association phase of 120 seconds, followed by dissociation of 300 seconds. Glycine (10 mM, pH 1.5) was injected as regeneration buffer after the dissociation phase.
The sensorgrams for the reference channel and the buffer channel were subtracted from the test sensorgrams. The experimental data were fitted with a 1:1 binding model. The molecular weight of the human 2IgB7H3 used in the calculation was 25.2 kDa.

[4] = test system: human B7H3-expressing cells MCF-7; test: Internalization test (HCS) in MCF-7 cells; type: cell-based
Experimental: Antibody internalization was determined by operetta CLS (PerkinElmer), a high-content imaging and analysis system that can collect and analyze images of samples at high speed and high sensitivity. MCF-7 cells expressing human full-length B7H3 (1.5×10^4 cells/well) were seeded into a 96-well clear bottom black plate pre-coated with 8 μg/mL poly-D-lysine. After incubation in an incubator set to 37° C., 5% CO2 overnight, various concentrations of the antibodies (3.16-fold serially diluted with 1×DPBS/1% BSA from 50 nM to 0.0005 nM) were incubated in a volume of 100 μL/well in a refrigerator set to 4° C. for 2 h. Anti-human B7H3 reference antibody enoblituzumab (MacroGeneics) was used as a positive control. Human IgG1 isotype antibody was used as a negative control. After washing the cells with 1×DPBS/1% BSA, Alexa 647 goat anti-human antibody (diluted in a 1:500 ratio in 1×DPBS/1% BSA) was added. The cells were incubated in a refrigerator set to 4° C. for 1 h in the dark. The cells were then washed once and resuspended in 1×DPBS/1% BSA at 37° C. for 2 h. […] The mean fluorescence intensity (MFI) of the cells was measured and analyzed by operetta CLS. EC50 values were calculated by four-parameter non-linear regression analysis using GraphPad Prism 7 software.

human 4IgB7H3 = molecular target: T3, human 4IgB7H3 (Homo sapiens, UniProt Q5ZPR3); test: Binding affinity for human 4IgB7H3 (SPR)
T3 construct: Uniprot ID: Q5ZPR3, amino acids 29-461; made in house; host or cells: Expi293F
T3 sequence (Q5ZPR3 29-461): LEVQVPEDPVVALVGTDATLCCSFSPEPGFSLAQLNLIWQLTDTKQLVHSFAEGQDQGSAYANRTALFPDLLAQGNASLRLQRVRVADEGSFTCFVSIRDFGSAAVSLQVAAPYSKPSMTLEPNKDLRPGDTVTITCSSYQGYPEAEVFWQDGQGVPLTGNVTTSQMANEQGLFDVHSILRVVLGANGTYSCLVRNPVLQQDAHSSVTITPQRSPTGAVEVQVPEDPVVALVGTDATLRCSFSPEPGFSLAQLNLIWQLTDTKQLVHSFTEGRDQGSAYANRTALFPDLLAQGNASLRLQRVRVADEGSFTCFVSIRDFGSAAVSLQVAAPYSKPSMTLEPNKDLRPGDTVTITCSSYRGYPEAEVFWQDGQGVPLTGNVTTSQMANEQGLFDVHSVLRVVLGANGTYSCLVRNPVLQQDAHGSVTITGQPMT
Experimental: The affinity of antibodies for human 4IgB7H3 was determined using surface plasmon resonance (SPR). The affinity of antibodies for human 4IgB7H3 was determined by Biacore 8K. An activator was prepared by mixing 400 mM EDC and 100 mM NHS (GE) immediately prior to injection into the channel. The CM5 sensor chip was activated for 420 seconds with the activator. Goat anti-human Fc IgG (30 μg/mL in 10 mM NaAc, pH 4.5) was then injected into the channel at a flow rate of 10 μL/min for 420 seconds. The chip was deactivated by 1 M ethanolamine hydrochloric acid. The antibodies diluted in running buffer (1×HBS-EP+) were injected into the channel at a flow rate of 10 μL/min for 30 seconds. Seven concentrations (100 nM, 50 nM, 25 nM, 12.5 nM, 6.25 nM, […], and 1.563 nM) of analyte human 4IgB7H3 were injected sequentially into the channel at a flow rate of 30 μL/min for an association phase of 180 seconds, followed by dissociation of 3600 seconds. Glycine (10 mM, pH 1.5) was injected as regeneration buffer after the dissociation phase.
The sensorgrams for the reference channel and the buffer channel were subtracted from the test sensorgrams. The experimental data were fitted with a 1:1 binding model. The molecular weight of the human 4IgB7H3 used in the calculation was 47.8 kDa.

Q: With `CC[C@@]1(O)C(=O)OCc2c1cc1n(c2=O)Cc2c-1nc1cc(F)c(C)c3c1c2[C@@H](NC(=O)C[C@H](C)O)CC3` [P-III-30] as the molecule, how does the AUC(0-t) ([1]; 3 mg/kg) read?
A: 1.07 ng·h/mL

Q: What about the Cmax ([1]; 3 mg/kg) of the same molecule?
A: 0.133 ng/mL

Q: And the AUC(0-t) ([1]; 10 mg/kg)?
A: 44.5 ng·h/mL

Q: And the Cmax ([1]; 10 mg/kg)?
A: 0.573 ng/mL

B1: Enoblituzumab (MacroGenics): anti-B7H3 benchmark antibody (MacroGenics), SEQ ID NOs: 117 and 119 in U.S. 20120294796A1 (antibody, chains of the INN, looked up)
heavy: EVQLVESGGGLVQPGGSLRLSCAASGFTFSSFGMHWVRQAPGKGLEWVAYISSDSSAIYYADTVKGRFTISRDNAKNSLYLQMNSLRDEDTAVYYCGRGRENIYYGSRLDYWGQGTTVTVSSASTKGPSVFPLAPSSKSTSGGTAALGCLVKDYFPEPVTVSWNSGALTSGVHTFPAVLQSSGLYSLSSVVTVPSSSLGTQTYICNVNHKPSNTKVDKRVEPKSCDKTHTCPPCPAPELVGGPSVFLLPPKPKDTLMISRTPEVTCVVVDVSHEDPEVKFNWYVDGVEVHNAKTKPPEEQYNSTLRVVSVLTVLHQDWLNGKEYKCKVSNKALPAPIEKTISKAKGQPREPQVYTLPPSREEMTKNQVSLTCLVKGFYPSDIAVEWESNGQPENNYKTTPLVLDSDGSFFLYSKLTVDKSRWQQGNVFSCSVMHEALHNHYTQKSLSLSPG
light: DIQLTQSPSFLSASVGDRVTITCKASQNVDTNVAWYQQKPGKAPKALIYSASYRYSGVPSRFSGSGSGTDFTLTISSLQPEDFATYYCQQYNNYPFTFGQGTKLEIKRTVAAPSVFIFPPSDEQLKSGTASVVCLLNNFYPREAKVQWKVDNALQSGNSQESVTEQDSKDSTYSLSSTLTLSKADYEKHKVYACEVTHQGLSSPVTKSFNRGEC
Q: For B1, which “Maximum MFI” value (human B7H3) is on record?
A: 4644

Q: And the “Maximum MFI” value (cynomolgus monkey B7H3 [2])?
A: 19700

Q: And the “ka” value (cynomolgus monkey B7H3 [3])?
A: 185000 M⁻¹ s⁻¹

Q: And the “kd (dissociation rate constant)” value (cynomolgus monkey B7H3 [3])?
A: 8.14e-05 s⁻¹

Q: And the “ka” value (human 2IgB7H3)?
A: 64400 M⁻¹ s⁻¹

Q: What about the “kd (dissociation rate constant)” value (human 2IgB7H3) of the same molecule?
A: 0.0168 s⁻¹

Q: And the “Antibody internalization Maximum MFI” value [4]?
A: 39777

Q: And the “ka” value (human 4IgB7H3)?
A: 124000 M⁻¹ s⁻¹

Q: And the “kd (dissociation rate constant)” value (human 4IgB7H3)?
A: 0.000126 s⁻¹

Reference: patent US12138316B2, “Anti-B7H3 antibody-drug conjugate and use thereof” (Duality Biologics (Suzhou) Co., Ltd., priority 2023, dated 2024)
